Marks after values point to notes of the source that are not given here.

Assay [1] has as its target T1, LgBiT-CXCR4 (Homo sapiens, UniProt P61073).
T1 construct: GSSG linker and TEV recognition site (EDLYFQS), between LgBiT and CXCR4 (N); expressed in transfected cells; whole cells in A1-A4, isolated membranes in A9/A10
Put plainly: NanoBiT saturation binding (complemented luminescence) in HEK293 cells stably expressing LgBiT-CXCR4. To be noted: fixed concentration: 100 nM CXCL12, 10 μM AMD3100 or 10 μM IT1t (Figure 3E). The method, then:
Saturation binding with VUN400-HiBiT was performed on HEK 293 cells stably expressing the LgBiT-CXCR4 receptor. Cells were plated at 30,000 cells/well in white 96-well plates previously coated with poly-D-lysine (10 μg/ml in PBS) in 100 μl complete media (DMEM with 10% FCS). After 24 hours, the media was removed and replaced with 100 μl HBSS containing VUN400-HiBiT within the range of 4-500 nM. Where used, CXCL12, AMD3100 or IT1t were also added at this point. The plate was incubated for two hours at 37°C. Furimazine (1:400 final concentration) was added to each well and the plate was incubated for a further 15 minutes at 37°C. Luminescence was measured using the PHERAstar FS plate reader.
Saturation binding curves of VUN400-HiBiT were fitted using the following equation: Specificbinding=Bmax×[B]/[B]+KD where Bmax is the maximal specific binding, [B] is the concentration of VUN400-HiBiT, and KD is the equilibrium dissociation constant (nM).

For assay [2], the target named is T2, SNAP-CXCR4 (Homo sapiens, UniProt P61073). Put plainly: NanoBiT nanobody displacement binding assay, whole HEK293 cells expressing SNAP-CXCR4 (exogenous LgBiT added after washing). Also on record: expressed in transfected cells; host or cells: HEK293G cells stably expressing SNAP-CXCR4 (gift of Dr. J. Goulding, University of Nottingham). The method, then:
(§1) Full nanobody displacement assays were performed in HEK293 cells stably expressing either the LgBiT-CXCR4 or SNAP-CXCR4 constructs. Cells (30,000 per well) were plated in white 96-well poly-D-lysine coated plates as described above. After 24 hours, media was removed and replaced with 100 μl HBSS. Increasing concentrations of displacing ligands were added to the cells. […] The cells were incubated at 37°C for 2 and a half hours in total. […] Furimazine (1:400 final concentration) was added to each well and the plate was incubated for a further 15 minutes at 37°C. Luminescence was measured using the PHERAstar FS plate reader.

For assay [3], the target named is T1, LgBiT-CXCR4. Put plainly: NanoBiT nanobody displacement binding assay, whole HEK293 cells expressing LgBiT-CXCR4. How it is done:
as §1

Assay [4] concerns T3, endogenous, untagged CXCR4.
T3 construct: these cells express high levels of CXCR4 endogenously; host or cells: Jurkat T cells (clone E6-1)
Briefly: Nanobody displacement assay in Jurkat T cells (endogenous CXCR4). The class given is binding, human. To be noted: 100 nM VUN400-HiBiT with competing ligand 2 h, washed, exogenous LgBiT added, p < 0.05. How it is done: Nanobody displacement assays in T-cells were performed by seeding 100,000 Jurkat cells per well into V-bottom 96-well plates in 100μl warm HBSS. Cells were treated with 100 nM VUN400-HiBiT and competing ligands simultaneously and incubated for 2 hours at 37°C. The cells were pelleted by centrifugation at 300g for 5 minutes and the supernatant removed and replaced with 200 μl fresh HBSS. Cells were resuspended via shaking at 1000 r.p.m on an orbital plate shaker for 2 minutes. This wash step was repeated two more times to remove unbound VUN400-HiBiT. The cells were treated with 20 nM exogenous LgBiT and furimazine (1:400 final concentration) and transferred to white 96-well plates and luminescence read using a PHERAstar FS plate reader.

Assay [5] concerns the target T2, SNAP-CXCR4. To be noted: 10 μM AMD3100 (Figure S1).
Description: Data are mean ± SEM from triplicate determinations in a single experiment. This single
Data are mean ± SEM from triplicate determinations in a single experiment.
Assay [6] addresses T2, SNAP-CXCR4. Briefly: TR-FRET saturation ligand binding at SNAP-CXCR4. Also on record: expressed in transfected cells; host or cells: HEK293G cells stably expressing SNAP-CXCR4 (gift of Dr. J. Goulding, University of Nottingham). The text has this: Saturation binding of VUN400-HiBiT a t th e
experiment is representative of five separate experiments.
Supplementary Figure 2 (related to Figure 5).
This single experiment is representative of five separate experiments.
On the technique in general: In TR-FRET formats the signal depends on donor and acceptor labels being close together.

Assay [7] concerns the target T1, LgBiT-CXCR4. Briefly: CXCL12-AF647 dissociation kinetics (NanoBRET) at complemented LgBiT-CXCR4. The class given is binding. How it is done: Nanobody and CXCL12-AF647 dissociation kinetic measurements were performed in membranes isolated from HEK293 LgBiT-CXCR4 cells. Briefly, 10 μg LgBiT-CXCR4 membranes were plated in white 96-well plates containing furimazine (1:400 final concentration) and incubated at 37°C for 10 minutes. […] Increasing concentrations of VUN400-HiBiT or CXCL12-AF647 were added to the wells and luminescence (VUN400-HiBiT) or the BRET ratio (CXCL12-AF647) were measured. […] The BRET ratio was calculated as described above. Both the BRET ratio and luminescence were measured using the PHERAstar FS plate reader.
For nanobody dissociation experiments were fitted to the following mono-exponential decay equation: Y=(Y0−NS)^−k.t+NS where Y0 is the nanobody binding at the time of ligand addition (t0), NS is the nanobody bound at infinite time, and k is the rate constant of nanobody dissociation.
A general note: BRET reads energy transfer from a luciferase to a nearby fluorophore.

The target of assay [8] is T1, LgBiT-CXCR4. Briefly: NanoBRET saturation binding at complemented LgBiT-CXCR4 in HEK293 cells. To be noted: non-specific binding defined with 10 μM AMD3100, 2 h 37°C. The method, then:
Saturation NanoBRET binding assays were performed on HEK 293 cells stably expressing the LgBiT-CXCR4 receptor. Cells were plated at 30,000 cells/well in white 96-well plates (Greiner) previously coated with 50 μl poly-D-lysine (mol wt: 70-150 kDa; 10 μg/ml in PBS) in 100 μl complete media (DMEM with 10% FCS). After 24 hours, the media was removed from each well and replaced with 100 μl HEPES-buffered saline solution (HBSS; 145 mM NaCl, 5 mM KCl, 1.3 mM CaCl2, 1 mM MgSO4, 10 mM HEPES, 2 mM sodium pyruvate, 1.5 mM NaHCO3, 10 mM D-glucose, pH 7.45) containing 10 nM purified HiBiT-HaloTag (Promega) and incubated at 37°C for 30 minutes. This was sufficient time for HiBiT-LgBiT complementation to occur, forming the fully complemented NanoLuc enzyme. The HBSS was then aspirated and the cells washed three times with 100 μl HBSS. […] Cells were incubated for 2 hours at 37°C in the dark. The NanoLuc substrate furimazine (Promega) was added to each well (1:400 final concentration) and allowed to equilibrate for 5 minutes at 37°C prior to reading. Luminescence signals were measured at two wavelengths using a PHERAstar FS plate reader (BMG Labtech, UK) at room temperature. Filtered light was simultaneously measured using 460 nm (80-nm bandpass) and >610 nm longpass filters. The resulting BRET ratio was calculated by dividing the >610 nm emission by the 460 nm emission.

Assay [9] deals with T4, LgBiT-tagged human CXCR4 receptor ( | human, UniProt P61073 2-352, CXCR4 portion only (initiator Met removed (so in the source)); this part carries VUN400, CXCL12, AMD3100 and IT1t binding. Left out: the 5-HT3A signal sequence (presumed cleaved), the N-terminal LgBiT report).
T4 chain: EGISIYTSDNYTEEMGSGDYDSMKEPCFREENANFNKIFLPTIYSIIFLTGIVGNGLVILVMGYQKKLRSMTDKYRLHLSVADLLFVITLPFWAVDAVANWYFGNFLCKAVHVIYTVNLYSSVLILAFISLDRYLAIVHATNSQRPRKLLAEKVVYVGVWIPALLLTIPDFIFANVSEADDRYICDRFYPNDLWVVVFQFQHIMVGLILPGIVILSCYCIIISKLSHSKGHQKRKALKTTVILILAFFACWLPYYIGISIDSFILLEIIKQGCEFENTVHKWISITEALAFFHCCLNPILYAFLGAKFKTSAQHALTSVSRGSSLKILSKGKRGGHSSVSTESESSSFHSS
Put plainly: split reporter (BiFC, NanoBiT); association kinetics; increasing concentrations of HiBiT added to HEK293 cells stably expressing LgBiT-CXCR4 in HBSS with furimazine; luminescence over 60 minutes at 37°C; global fit of kon and koff, KD = koff/kon. To be noted: one partner purified.

The mark [10] stands for this setting: 20 nM VUN400-HiBiT, (a) pre-incubation with VUN400-HiBiT.
Setting [11] is: 20 nM VUN400-HiBiT, (b) simultaneous addition.
[12] abbreviates: 20 nM VUN400-HiBiT, (c) pre-incubation with ligands.
Where [13] appears, read: 20 nM VUN400-HiBiT, (b) simultaneous addition, 2 h 37°C.
Where [14] appears, read: (c) pre-incubation with ligands 2 h 37°C, then 20 nM VUN400-HiBiT 30 min.
Where [15] appears, read: inhibition of 20 nM VUN400-HiBiT binding, (a) pre-incubation with VUN400-HiBiT 30 min, then ligand 2 h 37°C.

T2 sequence (P61073 whole entry): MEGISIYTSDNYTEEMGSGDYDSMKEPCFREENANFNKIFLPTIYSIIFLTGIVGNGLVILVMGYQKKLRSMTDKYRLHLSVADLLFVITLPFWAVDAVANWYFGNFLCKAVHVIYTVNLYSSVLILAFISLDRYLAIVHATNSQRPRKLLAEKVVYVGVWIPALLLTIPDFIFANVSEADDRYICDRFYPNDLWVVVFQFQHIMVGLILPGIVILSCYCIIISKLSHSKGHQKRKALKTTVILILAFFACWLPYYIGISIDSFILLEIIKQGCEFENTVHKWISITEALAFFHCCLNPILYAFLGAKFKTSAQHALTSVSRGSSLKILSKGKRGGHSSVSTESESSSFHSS

Turning to `c1cc(CN2CCCNCCNCCCNCC2)ccc1CN1CCCNCCNCCCNCC1` [AMD3100], the “prevention of VUN400-HiBiT binding to LgBiT-CXCR4” value (from here on “prevention of VUN400-HiBiT binding”) on LgBiT-CXCR4 [1] is on record as “prevented”. Also, the “Maximum Inhibition (% 10 μM AMD3100)” value on SNAP-CXCR4 [2] (setting [10]), at SNAP-CXCR4 [2] (setting [11]), on SNAP-CXCR4 [2] (setting [12]), at LgBiT-CXCR4 [3] (setting [10]), at LgBiT-CXCR4 [3] (setting [11]) and on LgBiT-CXCR4 [3] (setting [12]) was 100 % 10 μM AMD3100 in each case. Also, in assay [4], the “displacement of VUN400-HiBiT from endogenous CXCR4” value (“displacement of VUN400-HiBiT” for short) was “displaced”. Also, on SNAP-CXCR4 [5], the “effect on VUN400-HiBiT bioluminescence signal at SNAP-CXCR4” value is given as “able to reduce the bioluminescence signals”.

Take `CC1(C)CN2C(CSC(=NC3CCCCC3)NC3CCCCC3)=CSC2=N1.Cl.Cl` [IT1t, N,N’-Dicyclohexylcarbamimidothioic acid (5,6-dihydro-6,6-dimethylimidazo[2,1-b]thiazol-3-yl)methyl ester dihydrochloride]: on LgBiT-CXCR4 [1], the “prevention of VUN400-HiBiT binding” value is listed as “prevented”. Moreover, the “Maximum Inhibition (% 10 μM AMD3100)” value on SNAP-CXCR4 [2] (setting [10]) is 107.1 ± 4.8 % 10 μM AMD3100; on SNAP-CXCR4 [2] (setting [11]) it was 106.8 ± 11.5 % 10 μM AMD3100; at SNAP-CXCR4 [2] (setting [12]), 102.3 ± 3.6 % 10 μM AMD3100; at LgBiT-CXCR4 [3] (setting [10]), 104.4 ± 4.5 % 10 μM AMD3100; at LgBiT-CXCR4 [3] (setting [11]), 96.5 ± 0.4 % 10 μM AMD3100; on LgBiT-CXCR4 [3] (setting [12]), 79.9 ± 3.1 ^c % 10 μM AMD3100. In [4], the “displacement of VUN400-HiBiT” value is reported as “displaced”.

Turning to “CXCL12-AF647: fluorescently labeled CXCL12, fluorescent orthosteric agonist (Almac)”, the negative-log KD (pKD) with SNAP-CXCR4 [6] worked out at 7.99 ± 0.10; with LgBiT-CXCR4 [8] it was 7.80 ± 0.08. Besides, the koff with LgBiT-CXCR4 [7] (10 nM CXCL12-AF647, after addition of 1 μM CXCL12) stood at 0.00533 ± 0.0005 s⁻¹; with LgBiT-CXCR4 [7] (10 nM CXCL12-AF647, after addition of 10 μM AMD3100), 0.007 ± 0.00067 s⁻¹.

As to “CXCL12: chemokine ligand, endogenous orthosteric agonist of CXCR4 (PeproTech)”, the “prevention of VUN400-HiBiT binding” value in the assay with LgBiT-CXCR4 [1] is given as “prevented”. Also, the “Maximum Inhibition (% 10 μM AMD3100)” value with SNAP-CXCR4 [2] (setting [10]) was 93.3 ± 8.7 % 10 μM AMD3100; with SNAP-CXCR4 [2] (setting [11]), 92.8 ± 6.7 % 10 μM AMD3100; with SNAP-CXCR4 [2] (setting [12]), 67.7 ± 11.6 ^c % 10 μM AMD3100; with LgBiT-CXCR4 [3] (setting [10]) it was 98.2 ± 0.2 % 10 μM AMD3100; with LgBiT-CXCR4 [3] (setting [11]), 98.8 ± 0.3 % 10 μM AMD3100; with LgBiT-CXCR4 [3] (setting [12]), 111.5 ± 3.1 ^c % 10 μM AMD3100. Moreover, the “pIC50 (Mean ± SEM)” value in the assay with SNAP-CXCR4 [2] (setting [13]) is 8.05 ± 0.21 ^a; in the assay with SNAP-CXCR4 [2] (setting [14]) it was 8.05 ± 0.41; with SNAP-CXCR4 [2] (setting [15]) it was 8.14 ± 0.28 ^a; with LgBiT-CXCR4 [3] (setting [13]) it was 8.74 ± 0.13; with LgBiT-CXCR4 [3] (setting [14]) it was 9.03 ± 0.02; with LgBiT-CXCR4 [3] (setting [15]) it was 8.82 ± 0.12. Besides, the “displacement of VUN400-HiBiT” value in assay [4] is listed as “displaced”.

B1: purified HiBiT-HaloTag fusion protein (peptide)
chain: VSGWRLFKKIS
notes: Fusion protein of circa 34 kDa; also called HiBiT-HaloTag control protein; source: bought: Promega (Cat# N3010)
B1: in assay [9], the koff amounted to 0.00367 s⁻¹, the kon is 10000 M⁻¹ s⁻¹ and the negative logarithm of the KD (pKD) is 6.43 ± 0.13.

By pKD is commonly meant the KD on a negative log10 scale, so that one unit is a factor of ten. A word on the koff: it is a measure of how fast the partners let go of each other. The low end stands for slow dissociation, the high end for fast dissociation. As usually defined, the kon is the rate constant with which the complex forms.
